# Assay results published in publication PMC3435407 (PLoS ONE, 2012).
# Non-standard residues stand in square brackets, D forms with d. No end group written: not given here. *: point of attachment. Biotin = O=C1N[C@H]2[C@H](CS[C@H]2CCCCC(=O)*)N1; Bpa = N[C@@H](Cc1ccc(C(=O)c2ccccc2)cc1)C(=O)O
# How the values were obtained:
# [1] = biological target: T1, αAG98R-crystallin (human αA-crystallin G98R mutant) (human, UniProt P02489 1-173, G98R); experiment: cross-linking; 200 µg biotinyl-Bpa peptide with 200 µg αAG98R, pH 7.2, 37°C, 1 hr; free peptide removed on a 10 kDa filter; photolysis at 365 nm, 30 min, 4°C; desalted on C18; MALDI-TOF/TOF mass spectrometry; details: both partners purified
# T1 sequence (P02489 whole entry G98R): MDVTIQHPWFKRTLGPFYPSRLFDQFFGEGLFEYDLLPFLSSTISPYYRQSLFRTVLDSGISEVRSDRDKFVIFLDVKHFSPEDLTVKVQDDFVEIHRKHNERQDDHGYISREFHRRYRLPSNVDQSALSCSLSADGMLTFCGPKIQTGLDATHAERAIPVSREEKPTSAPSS
# [2] = biological target: T1, αAG98R-crystallin (human αA-crystallin …); experiment: cross-linking; 200 µg biotinyl-Bpa peptide with 200 µg αAG98R, pH 7.2, 37°C, 1 hr; free peptide removed on a 10 kDa filter; photolysis at 365 nm, 30 min, 4°C; SDS-PAGE and western blot for biotin (avidin-horseradish peroxidase); details: both partners purified
binder,measurement,setting,value
Biotin-DFVIFLDVKH[Bpa]SPEDLTVK [Biotin-DFVIFLDVKH(Bpa)SPEDLTVK (biotinyl αA-mini-chaperone-Bpa peptide)],stoichiometry N,[1],1 peptide per αAG98R monomer
same,stoichiometry N,[2],1 peptide per αAG98R subunit
